In IntAct's records for PubMed 21858081:

Target: tppc9_human TRAPPC9 (UniProt Q96Q05)
Sequence (Q96Q05 whole entry): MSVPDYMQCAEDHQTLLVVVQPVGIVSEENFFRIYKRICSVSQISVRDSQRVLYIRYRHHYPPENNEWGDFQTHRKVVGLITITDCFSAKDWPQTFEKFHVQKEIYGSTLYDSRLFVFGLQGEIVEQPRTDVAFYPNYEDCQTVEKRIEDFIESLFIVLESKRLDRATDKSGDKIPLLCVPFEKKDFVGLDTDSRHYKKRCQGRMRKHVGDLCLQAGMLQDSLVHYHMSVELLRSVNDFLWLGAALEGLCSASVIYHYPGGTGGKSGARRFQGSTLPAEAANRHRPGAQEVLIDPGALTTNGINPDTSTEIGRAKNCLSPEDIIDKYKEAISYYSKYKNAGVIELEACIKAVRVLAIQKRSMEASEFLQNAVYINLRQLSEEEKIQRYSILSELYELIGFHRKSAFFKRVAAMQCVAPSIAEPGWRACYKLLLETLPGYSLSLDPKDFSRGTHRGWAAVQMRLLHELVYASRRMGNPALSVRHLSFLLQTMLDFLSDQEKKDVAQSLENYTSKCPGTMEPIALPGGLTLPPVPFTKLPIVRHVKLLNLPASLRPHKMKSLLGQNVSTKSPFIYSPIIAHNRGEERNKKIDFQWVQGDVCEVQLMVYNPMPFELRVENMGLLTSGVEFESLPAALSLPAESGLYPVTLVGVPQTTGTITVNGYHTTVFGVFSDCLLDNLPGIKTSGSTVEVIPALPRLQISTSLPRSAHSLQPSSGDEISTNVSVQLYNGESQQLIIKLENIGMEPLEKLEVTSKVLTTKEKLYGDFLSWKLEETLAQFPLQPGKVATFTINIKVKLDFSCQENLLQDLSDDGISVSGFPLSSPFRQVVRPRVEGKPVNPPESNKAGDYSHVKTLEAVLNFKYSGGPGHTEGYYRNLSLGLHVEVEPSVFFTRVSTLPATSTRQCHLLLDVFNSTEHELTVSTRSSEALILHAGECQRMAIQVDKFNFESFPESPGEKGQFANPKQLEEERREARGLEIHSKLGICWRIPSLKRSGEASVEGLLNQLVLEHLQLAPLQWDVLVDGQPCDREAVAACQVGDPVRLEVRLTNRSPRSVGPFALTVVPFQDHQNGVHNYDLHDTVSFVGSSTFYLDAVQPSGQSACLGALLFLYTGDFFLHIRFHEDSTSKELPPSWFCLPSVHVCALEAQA

Substance: Trafficking protein particle complex subunit 2 (Mus musculus) (from UniProt Q9CQP2) D47Y
- effect of a mutation on the interaction: decreasing interaction strength
